Experimental data reported in patent US20040171105.
Where a chain is given by its changes, count along the chain named.

What was measured:
[1] = biological target: GST fusion form of full-length human cIAP2, Q13489
[2] = biological target: GST fusion form of full-length human cIAP1, Q13490
[3] = biological target: T1, Livin β (human, N-terminal hexa-His tagged), Q96CA5
T1 chain: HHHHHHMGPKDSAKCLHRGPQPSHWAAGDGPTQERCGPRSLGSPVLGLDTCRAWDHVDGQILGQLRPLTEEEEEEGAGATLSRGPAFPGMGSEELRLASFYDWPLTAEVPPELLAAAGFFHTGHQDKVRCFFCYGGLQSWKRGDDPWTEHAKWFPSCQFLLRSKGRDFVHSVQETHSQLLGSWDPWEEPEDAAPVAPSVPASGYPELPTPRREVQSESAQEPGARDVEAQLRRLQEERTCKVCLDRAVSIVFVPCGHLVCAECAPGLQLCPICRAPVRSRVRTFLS

[4] = biological target: T2, Smac (purified recombinant), Q9NR28
T2 chain: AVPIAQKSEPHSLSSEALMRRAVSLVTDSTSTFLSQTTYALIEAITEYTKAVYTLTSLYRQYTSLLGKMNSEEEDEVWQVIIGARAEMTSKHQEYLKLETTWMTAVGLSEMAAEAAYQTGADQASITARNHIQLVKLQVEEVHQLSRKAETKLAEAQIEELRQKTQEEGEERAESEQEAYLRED

[5] = biological target: GST fusion form of full-length human XIAP, P98170
[6] = biological target: T3, Livin α (human, N-terminal hexa-His tagged), Q96CA5
T3 chain: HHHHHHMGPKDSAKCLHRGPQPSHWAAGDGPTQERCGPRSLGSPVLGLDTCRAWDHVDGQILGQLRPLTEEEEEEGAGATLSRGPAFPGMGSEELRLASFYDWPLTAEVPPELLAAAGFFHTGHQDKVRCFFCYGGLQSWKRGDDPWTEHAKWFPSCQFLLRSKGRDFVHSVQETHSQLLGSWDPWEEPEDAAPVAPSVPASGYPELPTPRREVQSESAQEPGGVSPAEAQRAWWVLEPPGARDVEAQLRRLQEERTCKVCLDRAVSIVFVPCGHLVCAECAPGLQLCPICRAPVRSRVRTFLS

[7] = biological target: mutant cIAP1 (recombinant cIAP1 mutated at the three preferred Omi cleavage sites, GST fusion) [GST: P08515]
[8] = biological target: T4, GST fusion form of full-length Drosophila DIAP1, Q24306
T4 chain: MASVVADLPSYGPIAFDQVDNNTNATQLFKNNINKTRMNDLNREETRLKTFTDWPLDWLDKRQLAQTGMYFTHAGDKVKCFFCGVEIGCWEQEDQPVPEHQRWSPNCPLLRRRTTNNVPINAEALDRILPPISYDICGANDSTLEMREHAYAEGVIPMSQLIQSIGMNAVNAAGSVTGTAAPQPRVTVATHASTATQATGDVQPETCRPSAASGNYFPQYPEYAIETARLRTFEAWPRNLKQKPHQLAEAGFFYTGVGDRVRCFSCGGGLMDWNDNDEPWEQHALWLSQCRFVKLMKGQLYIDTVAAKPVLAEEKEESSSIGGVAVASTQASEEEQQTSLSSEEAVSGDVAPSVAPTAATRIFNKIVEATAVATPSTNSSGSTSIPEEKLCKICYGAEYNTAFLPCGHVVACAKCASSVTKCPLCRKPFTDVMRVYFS

Chain of GST fusion form of full-length human cIAP1, Q13490 (Q13490 whole entry, the tested form may be a part): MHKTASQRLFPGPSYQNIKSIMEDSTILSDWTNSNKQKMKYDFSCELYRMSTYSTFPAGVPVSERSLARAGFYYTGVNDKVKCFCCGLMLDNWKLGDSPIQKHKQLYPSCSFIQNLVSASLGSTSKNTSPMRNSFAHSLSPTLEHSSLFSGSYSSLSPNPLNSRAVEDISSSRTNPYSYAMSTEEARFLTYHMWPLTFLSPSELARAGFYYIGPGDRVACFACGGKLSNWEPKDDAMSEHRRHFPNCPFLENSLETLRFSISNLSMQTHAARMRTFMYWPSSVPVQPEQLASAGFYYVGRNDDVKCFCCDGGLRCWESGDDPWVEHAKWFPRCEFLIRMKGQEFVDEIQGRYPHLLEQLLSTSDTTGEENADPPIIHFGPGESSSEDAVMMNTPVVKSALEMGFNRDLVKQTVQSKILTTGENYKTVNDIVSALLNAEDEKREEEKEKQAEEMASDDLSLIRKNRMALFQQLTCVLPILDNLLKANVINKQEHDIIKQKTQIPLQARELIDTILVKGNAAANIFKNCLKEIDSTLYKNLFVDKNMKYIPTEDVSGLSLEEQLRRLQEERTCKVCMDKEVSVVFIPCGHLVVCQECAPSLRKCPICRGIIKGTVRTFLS
Chain of Survivin, O15392 (O15392 whole entry, looked up): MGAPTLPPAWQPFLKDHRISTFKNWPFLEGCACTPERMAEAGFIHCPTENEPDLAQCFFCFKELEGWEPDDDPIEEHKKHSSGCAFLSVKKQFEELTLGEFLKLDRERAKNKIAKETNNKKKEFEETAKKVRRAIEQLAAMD
Chain of GST fusion form of full-length human XIAP, P98170 (P98170 whole entry, the tested form may be a part): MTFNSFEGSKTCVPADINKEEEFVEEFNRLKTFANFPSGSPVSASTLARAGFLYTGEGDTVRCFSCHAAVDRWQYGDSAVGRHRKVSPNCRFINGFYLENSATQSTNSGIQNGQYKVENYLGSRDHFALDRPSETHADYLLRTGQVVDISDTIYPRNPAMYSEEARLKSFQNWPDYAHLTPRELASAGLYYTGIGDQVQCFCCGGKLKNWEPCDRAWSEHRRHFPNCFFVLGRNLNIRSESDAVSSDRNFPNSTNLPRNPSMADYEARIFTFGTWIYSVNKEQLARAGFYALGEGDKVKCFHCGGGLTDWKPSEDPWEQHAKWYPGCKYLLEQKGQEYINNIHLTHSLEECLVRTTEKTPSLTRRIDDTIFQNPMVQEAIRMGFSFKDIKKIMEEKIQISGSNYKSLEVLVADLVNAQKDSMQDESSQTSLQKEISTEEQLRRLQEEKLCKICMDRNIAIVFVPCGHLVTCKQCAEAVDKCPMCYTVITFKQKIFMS
Chain of GST fusion form of full-length human cIAP2, Q13489 (Q13489 whole entry, the tested form may be a part): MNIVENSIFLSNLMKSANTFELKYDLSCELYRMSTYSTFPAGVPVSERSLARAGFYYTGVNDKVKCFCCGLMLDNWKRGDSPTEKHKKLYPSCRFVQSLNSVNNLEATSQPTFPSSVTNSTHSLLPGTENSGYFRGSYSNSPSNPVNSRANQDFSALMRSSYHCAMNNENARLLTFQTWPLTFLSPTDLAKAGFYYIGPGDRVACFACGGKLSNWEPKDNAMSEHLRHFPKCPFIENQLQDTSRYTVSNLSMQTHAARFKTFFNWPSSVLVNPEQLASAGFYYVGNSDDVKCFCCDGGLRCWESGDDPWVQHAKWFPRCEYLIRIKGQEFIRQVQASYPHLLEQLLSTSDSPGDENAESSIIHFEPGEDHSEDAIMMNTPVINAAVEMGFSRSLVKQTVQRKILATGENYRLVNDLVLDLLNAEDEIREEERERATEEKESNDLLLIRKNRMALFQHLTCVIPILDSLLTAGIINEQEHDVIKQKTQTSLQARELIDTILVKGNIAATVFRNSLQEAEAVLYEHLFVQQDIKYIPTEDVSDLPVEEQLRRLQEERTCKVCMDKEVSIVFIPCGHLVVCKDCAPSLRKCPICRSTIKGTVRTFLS

B1: Omi WT (wild-type mature Omi/HtrA2, C-terminal hexa-His tagged, recombinant from E. coli) (protein)
chain: AVPSPPPASPRSQYNFIADVVEKTAPAVVYIEILDRHPFLGREVPISNGSGFVVAADGLIVTNAHVVADRRRVRVRLLSGDTYEAVVTAVDPVADIATLRIQTKEPLPTLPLGRSADVRQGEFVVAMGSPFALQNTITSGIVSSAQRPARDLGLPQTNVEYIQTDAAIDFGNSGGPLVNLDGEVIGVNTMKVTAGISFAIPSDRLREFLHRGEKKNSSSGISGSQRRYIGVMMLTLSPSILAELQLREPSFPDVQHGVLIHKVILGSPAHRAGLRPGDVILAIGEQMVQNAEDVYEAVRTQSQLAVQIRRGRETLTLYVTPEVTEHHHHHH
**Q.** B1 was tested. Which “cleavage of IAP in vitro” value [1] did it give?
**A.** The value was “the wild-type Omi cleaved various forms of IAP proteins, including cIAP1, cIAP2, XIAP, Livin α and Livin β”.

**Q.** What about the “IAP cleavage and caspase reactivation in HeLa S100 extracts” value [2] of the same protein?
**A.** Its value is “Omi at 75 or 10 nM resulted in similar amount IAP cleavage and caspase reactivation for mutant and wild-type cIAP1, respectively”.

**Q.** What about the “cleavage of cIAP1 in vitro (SDS-PAGE, silver staining)” value [2] of the same protein?
**A.** Its value is “Wild-type Omi (Omi WT) protein at 2.5 nM (nano Molar) almost completely cleaved 50 nM cIAP1”.

**Q.** And the “cleavage of Livin in vitro (Western blot, anti-Livin)” value [3]?
**A.** Its value is “Omi WT cleaved Livin α and Livin β”.

**Q.** And the “proteolytic processing of Smac by Omi” value [4]?
**A.** Its value is “Smac, therefore, was not cleavable by Omi”.

**Q.** What about the “cleavage of IAP in vitro” value [5] of the same protein?
**A.** The value was “the wild-type Omi cleaved various forms of IAP proteins, including cIAP1, cIAP2, XIAP, Livin α and Livin β”.

**Q.** What about the “cleavage in vitro (Western blot, anti-Survivin; 25 nM Survivin, 150 nM Omi WT)” value (Survivin, O15392) of the same protein?
**A.** The value was “This cleavage activity, however, was absent for Survivin”.

**Q.** And the “cleavage of Livin in vitro (Western blot, anti-Livin)” value [6]?
**A.** The value was “Omi WT cleaved Livin α and Livin β”.

**Q.** And the “IAP cleavage and caspase reactivation in HeLa S100 extracts” value [7]?
**A.** The value was “Omi at 75 or 10 nM resulted in similar amount IAP cleavage and caspase reactivation for mutant and wild-type cIAP1, respectively”.

**Q.** And the “resistance to Omi protease against wild-type cIAP1” value [7]?
**A.** Its value is “mutant cIAP1 is ˜7.5-fold more resistant to Omi protease”.

**Q.** And the “cleavage of IAP in vitro” value [8]?
**A.** Its value is “As shown in FIG. 1A, Omi WT cleaved IAP proteins”.

B2: endogenous caspase-9 of HeLa S100 extract, activated by dATP and cytochrome c (protein)
chain: MDEADRRLLRRCRLRLVEELQVDQLWDALLSRELFRPHMIEDIQRAGSGSRRDQARQLIIDLETRGSQALPLFISCLEDTGQDMLASFLRTNRQAAKLSKPTLENLTPVVLRPEIRKPEVLRPETPRPVDIGSGGFGDVGALESLRGNADLAYILSMEPCGHCLIINNVNFCRESGLRTRTGSNIDCEKLRRRFSSLHFMVEVKGDLTAKKMVLALLELAQQDHGALDCCVVVILSHGCQASHLQFPGAVYGTDGCPVSVEKIVNIFNGTSCPSLGGKPKLFFIQACGGEQKDHGFEVASTSPEDESPGSNPEPDATPFQEGLRTFDQLDAISSLPTPSDIFVSYSTFPGFVSWRDPKSGSWYVETLDDIFEQWAHSEDLQSLLLRVANAVSVKGIYKQMPGCFNFLRKKLFFKTS
**Q.** How did the “caspase activity in HeLa extracts (cleavage of 35S-labeled procaspase-3)” value [2] turn out when B2 was run?
**A.** Its value is “Caspase activity was completely inhibited by 250 nM of cIAP1”.

B3: OmiΔ8 (Omi without the AVPS tetrapeptide, C-terminal hexa-His tagged) (protein)
chain: PPPASPRSQYNFIADVVEKTAPAVVYIEILDRHPFLGREVPISNGSGFVVAADGLIVTNAHVVADRRRVRVRLLSGDTYEAVVTAVDPVADIATLRIQTKEPLPTLPLGRSADVRQGEFVVAMGSPFALQNTITSGIVSSAQRPARDLGLPQTNVEYIQTDAAIDFGNSGGPLVNLDGEVIGVNTMKVTAGISFAIPSDRLREFLHRGEKKNSSSGISGSQRRYIGVMMLTLSPSILAELQLREPSFPDVQHGVLIHKVILGSPAHRAGLRPGDVILAIGEQMVQNAEDVYEAVRTQSQLAVQIRRGRETLTLYVTPEVTEHHHHHH
**Q.** For B3, which “cleavage of cIAP1 in vitro (SDS-PAGE, silver staining)” value [2] is on record?
**A.** The value was “A concentration (25 nM), 10-fold higher than the wild-type, was required to cleave IAP”.

**Q.** What about the “proteolytic efficiency against Omi WT” value [2] of the same protein?
**A.** Its value is “The proteolytic efficiency of Omi?8 was, therefore, 10-fold lower than that of Omi WT regarding cIAP1 cleavage”.

B4: OmiΔPDZ (Omi with the PDZ domain deleted, C-terminal hexa-His tagged) (protein)
chain: AVPSPPPASPRSQYNFIADVVEKTAPAVVYIEILDRHPFLGREVPISNGSGFVVAADGLIVTNAHVVADRRRVRVRLLSGDTYEAVVTAVDPVADIATLRIQTKEPLPTLPLGRSADVRQGEFVVAMGSPFALQNTITSGIVSSAQRPARDLGLPQTNVEYIQTDAAIDFGNSGGPLVNLDGEVIGVNTMKVTAGISFAIPSDRLREFLHRGEKKNSSSGISGSQHHHHHH
**Q.** With B4 as the protein, how does the “cleavage of cIAP1 in vitro (SDS-PAGE, silver staining)” value [2] read?
**A.** Its value is “The Omi?PDZ at 2.5 nM cleaved the full-length cIAP1 molecules into smaller fragments, whereas the Omi WT enzyme, at the same concentration, still left some uncleaved full-length cIAP1 molecules”.

B5: Omi SA (protease dead mutant Omi S306→Ala, C-terminal hexa-His tagged) (protein)
chain: B1 chain with S173A
**Q.** With B5 as the protein, how does the “cleavage of cIAP1 in vitro (Western blot, anti-GST)” value [2] read?
**A.** The value was “Omi WT cleaved the cIAP1, but the Omi SA did not”.
